The numbers were not newly measured in publication PMC3629029, which cites them from elsewhere.

The target in this data set is calreticulin (Homo sapiens) (UniProt P27797). The data set is described as follows: SPR.
Sequence of UniProt P27797 (P27797 18-417): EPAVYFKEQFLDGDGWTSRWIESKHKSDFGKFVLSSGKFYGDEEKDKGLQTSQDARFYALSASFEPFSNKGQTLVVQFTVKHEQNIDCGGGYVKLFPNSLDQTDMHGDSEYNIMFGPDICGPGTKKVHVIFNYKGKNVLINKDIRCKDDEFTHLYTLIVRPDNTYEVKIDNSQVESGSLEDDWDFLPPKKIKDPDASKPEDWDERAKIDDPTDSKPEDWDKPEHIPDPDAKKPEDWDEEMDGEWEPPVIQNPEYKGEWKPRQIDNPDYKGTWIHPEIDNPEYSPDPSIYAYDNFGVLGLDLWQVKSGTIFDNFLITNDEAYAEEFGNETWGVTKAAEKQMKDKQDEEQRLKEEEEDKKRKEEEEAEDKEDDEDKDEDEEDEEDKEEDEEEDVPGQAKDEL

For the substance PDIR (from UniProt Q14554), the Kd was 16 µM.

Usually Kd stands for the free concentration of one partner at which half of the binding sites on the other are occupied at equilibrium, for simple one-to-one binding.
